Laboratory results from paper PMC8146883, “A New Thermophilic Ene-Reductase from the Filamentous Anoxygenic Phototrophic Bacterium Chloroflexus aggregans” (Microorganisms, 2021).

Key:
Assay in all cases: purified protein
Type in all cases: biochemical, Chloroflexus aggregans
Details in all cases: 100 μM NADPH, 50 mM Tris-HCl pH 8.0, 25 °C, 1% ethanol, 200 nM enzyme
purified protein [1] = substrate: O=C1C=CCCC1
purified protein [2] = substrate: CC1=CC(=O)CC(C)(C)C1=O
purified protein [3] = substrate: C=CC(=O)CCCCC

B1: CaOYE (Chloroflexus aggregans DSM 9485) (protein)
chain: MQPHLFTPLTIGSVTLRNRIGMSPMCQYSAVDGFPTDWHLMHLGARAAGGVGLIILEATAVSPEGRISPFDLGIWSDDHIAALSRIVKLIESLGAVAGIQLAHAGRKASVGRPWEGGKPIAPANGGWPVVGPTAEPFAPGYPTPIPLDAAGIARVVADFATATKRARAAGFRWIEIHAAHGYLLHNFLSPLGNDRNDEYGGDLRGRVRLLSEVTAAVRAEWPSDLPLAVRLSCSDWTPEGLTIADTVEVARMLREQGVDLIDCSSGGIAPGITIPVGEGYQVPFAAQVRREANIATAAVGLITRPEHADAIVRNGDADLVLLGRELLRDPHWPLRAARALGHDLAPPPQYLRAW
notes: full-length ORF in pET-28a(+) (NdeI/BamHI), N-terminal His6-tag, E. coli BL21(DE3); model visible Met1 to Trp354; monomer in solution, dimer in crystal
- Km (purified protein [1]): 5.520 ± 0.627 mM
- kcat (purified protein [1]): 3.82 ± 0.176 s⁻¹
- kcat/Km (purified protein [1]): 690 M⁻¹ s⁻¹
- Km (purified protein [2]): 0.013 ± 0.002 mM
- kcat (purified protein [2]): 2.27 ± 0.055 s⁻¹
- kcat/Km (purified protein [2]): 175000 M⁻¹ s⁻¹
- Km (purified protein [3]): 10.32 ± 1.438 mM
- kcat (purified protein [3]): 12.1 ± 0.661 s⁻¹
- kcat/Km (purified protein [3]): 1170 M⁻¹ s⁻¹
